Assay results taken from the DeepSol protein solubility set.

assay: soluble on expression in E. coli; label from the status in PepcDB or PDB records

Soluble on expression in E. coli, not soluble:
MAHHHHHHMHFSPLVFHIHFTRSFSLFFRFCMQLATREGWWEEGGEKEGVFEGAIEEKTVMSFFFDEDSGDEPATKRHCTEQQQRAQGRPHGGFFNGNGEKDEDEDERPVLARAGSDRVGLRLLQGMQKPTSSSSSVLLSGKEKMRVVEAYVPLSVGGFMESSAETAVDNLSQIKPGNVMCLRSPASSASQASTGMNFVRETDLTEEERRYGKRLSSNMTQELFEVGRVDRDTGMLEAIFLDGTRRNLKAYAVRPAGFVEKELFRQWKRDPNSRPVRTVYAAPQDANASPSLSSTTQTTRTTAVDSAKRKNNTAAVELMPWWVSPQLIVRVVEKSAGDLFGKKFVVKSLSRKEGKIRLAPWQRSAGNGESAENSPVDIVGCEALETIVPKVGEQGIIVLGNMRGELVKVMERHRDVNGELASLKVCSTLTGNEFTVGPHEVCQLACPRP
MSKIEIYNREEALLLIEKLNNSNIEIPILLMLTLGLRLGEATGLRWTDVDLNIGSVSVSQTLIYANNKIEFKEPKTSKSRRTLSAPDELIEKLKIEKLRQNKLKLQGILKNENNLVCLNKDYNPFLPATLRKSFHRFIKKNNLKNIRMHDLRHTNASLLLLGGTNMKVVSERLGHTDIQITMNRYSHVLEEMDKKASDNLSKILEHHHHHH
RVSNEFPPREYIATVYNRICNYLQIGEGEGFERSFDFDIDAFCRNFRMFPTQVLAAIRILDVAGIWEYREEKTRSRLTIQVQRDELYRMRSEQASDSVLTALMRTYDGLFADYVSIVESELAEKTGLSVDQVYQQLLLLNKAGIVNYIPQKNLPRIYFLTRREDAELLQIPRAAYEDRRDRLKARIDQSLRYIEEENTCRSRMLLAYFGEEQSHNCKLCDVCLRRKDGELHHHEVDDLLHFLEQRLTEETPYVLIADICRELHHHPDVVLKAIRFVMKESWQYSTDGDTVFLTHKLPGGLNL
MGSDKIHHHHHHMPKNLYNYQEFIRLSHEGKIAFEQIDVPKNASLLTEKIDIDNHIYLVVDGYIALILNDGSQNPKIYSIQGKGTFLNYFTLLDRSNNHFNFKTLSGCSLYKYSKADMEYFLSMFPENFGFQFFIMKNQTTHIYFKSLMASSPASEKLKTTFSNMALLHGVLSDDDTVILPQAIKTSHLLSYSNLSKSCFYKDLQHLKTTNQIEKKEKSWIIHDQELYAMIQNGQTSF
MMGYNFNEKPLLIFWETTKACGLKCEHCRASAILEALPDEMNYDESIDFLSHIKEFGKPYPIVILTGGDMLRKRRINDIMKYLKDAEIPFSVSPAVTEMLTDERIKSFLEFGVSSVSISLDGMKDVHEKVRGVPGVFDDTVRVVEKLIKEGIPMQINTVVMRSTVNDLPKVLKLILDKSVKVWEVFFLIKTGRGIDREDLSPEEYEDVNKYLLYATGYGIRIRTVESPIFRRITLQSGSTGRIEGGPLYQKLVSETEKIIGKKPSAIAKSVIPTRDGYGIIFVGHNGDVYPSGFLPYKVGNVKNQSIVDIYRKSELLRKIRDPDNLVGKCGFCEYRSVCGGSRARAFAYSSDPFGTDPSCSYMPKSVVSA
MGSDKIHHHHHHMIIEHARDMLKRERLFFDKMQAHIGEVNGTISIGCSSLIGQTLLPEVLSLYNAQFPNVEIQVQVGSTEQIKANHRDYHVMITRGNKVMNLANTHLFNDDHYFIFPKNRRDDVTKLPFIEFQADPIYINQIKQWYNDNLEQDYHATITVDQVATCKEMLISGVGVTILPEIMMKNISKEQFEFEKVEIDNEPLIRSTFMSYDPSMLQLPQVDSFVNLMASFVEQPKA
MGSDKIHHHHHHMSSPFDYFVVFAEMRTGSNFLEANLNALDGVACVGEAFNPHFIGYPNKTEILEVSQDMRDADPQCLIDAVRDARGVLAGFRFFHDHDPRVLDLVLSDPRCAKIILTRNPLDSYVSWKIAKETGQWKLTNIKRRKEAQARFDAEEFARHVEALQDFQVFLLNSLQRSGQTPFYVAYEDLQDLSVMNGLAQWLGVSARLEQLDDSLKRQNPSPVTSKVVNAGEMVEALSGLDRFNLTRTPNFEPRRGPAVPTYVTGAVTPLIYLPVRGGPEDEVRRWMADLDGVVDAALGTGLNQKQVRGWLKGNEGHRAFTVLRHPLARAHSAFCHRILNKGPGCFTKIRNTLRRQFSLPIPEGTPGLDYGRADHRAAFEAFLEFVRMNLAGQTAIRIDGSWCSQAQALSSFAEFVSPDLILREDEIATDLPSLARRFGHAEPPEPPRAAPDTPIPLSDIYDDALEALAADVYQRDYIVFGFGKWAGGQA
MSLKLRARLPRGLADRGPAEIAATRAMVEKIREVYERYGFEPVETPAFEYTDALGKFLPDQDRPNEGVFSLQDDDEQWISLRYDLTAPLARYVAENFDQLPKPHRSYRFGWVFRNEKPGPGRFRQFMQFDADTVGAPTAAADAEMCMMAADTMEALGIPRGSYVVKVNNRKVLDGVLESIGLGGDENAGRRLTVLRAIDKSDKFAPEEIKKLLGPGRWDGGEEGKGDFTKGAMLSDDQSELILRATSPSFIAGRFNADGSGGISNIDTVELLRSTADNETLKQGCDELAVIADLLDACGYGATSANPDVRVVIDPSVVRGLEYYTGPVYEVELLLDTKDEKGRPVRFGSVGGGGRYDGLVSRFRGEPVPATGFSIGVSRLQAALTLIGQLGNKPQAGPVVVTVFGGEIAGYQKMVATLRKAGIRAELYLGNPKHSLGQQMKYADKRNSPCAIIQGSDEKQQGIVQIKDLILGAELASLEKDRDEYLKKQAEAQFSEGHHHHHH
MNERFGELNFVTPDACSLRRMANKYYPYTMRQSFPLWTSISKEVQIVEGRELPVMQDLADRHPEINKMYGSAEELWENLKTFIDFQGNLQYFEVNPCVSYNHRFFIHKDISSDKKFLYKNDIFLSIQDNLIVRKPVLRNRVSLFMLAYFLKYHEKKLSTSCEFVEYVEKDFDNLINELNDFLLDFIKKPKPVANDANFDWKKVFTRLRNMLPEPMTEEEMSPLADVLKRYFETYPRAQAVGVLNMIEQFCKMMIPRLQKIMDKRPEWFLPNRTKNAKPVLRYFIDGKKPFVMVPEYEIATKEKFQYTDSSFMATGIDTIDLSDISLVASSNGGSLSDFYCIRFNIERTKHTARPIRTTTGTFCKLSADVLLEHLRDLFFGSRVFQSPTRSMFNGYVISMNEIFNSNAQGIYFLEESIIEFVEKISSGLFGTPESKTIRDVPPKGFTVGDVHSELKYLGLLEFFPNISNYAEIAYKKVVAEKKMKILRTCDMFDAVEICMMLAVFNGYPKLAQFLHSQHACHRIQGLQCKKCELEKKHPMMNSWLYPYMEVEEDEKVDSTSSDDEEKRTSTSELAGNGRKSEQKKLAVKDPEPSTMEKETRKSKCCESTKDQLKAFQEQVEALKKEMKELETAMSKNLKN

Soluble on expression in E. coli, soluble:
MACRQEPQPQGPPPAAGAVASYDYLVIGGGSGGLASARRAAELGARAAVVESHKLGGTCVNVGCVPKKVMWNTAVHSEFMHDHADYGFPSCEGKFNWRVIKEKRDAYVSRLNAIYQNNLTKSHIEIIRGHAAFTSDPKPTIEVSGKKYTAPHILIATGGMPSTPHESQIPGASLGITSDGFFQLEELPGRSVIVGAGYIAVEMAGILSALGSKTSLMIRHDKVLRSFDSMISTNCTEELENAGVEVLKFSQVKEVKKTLSGLEVSMVTAVPGRLPVMTMIPDVDCLLWAIGRVPNTKDLSLNKLGIQTDDKGHIIVDEFQNTNVKGIYAVGDVCGKALLTPVAIAAGRKLAHRLFEYKEDSKLDYNNIPTVVFSHPPIGTVGLTEDEAIHKYGIENVKTYSTSFTPMYHAVTKRKTKCVMKMVCANKEEKVVGIHMQGLGCDEMLQGFAVAVKMGATKADFDNTVAIHPTSSEELVTLR
DCYCRIPACIAGEKKYGTCIYQGKLWAFCC
CSKNRKAKAKPVTRGTGAGSRPRGQNKERPPPVPNPDYEPIRKGQRDLYSGLNQRAV
MIFMHPKTLEILKMFEEINKIPRRSKNEEKLALWLMEWAKNHNFEAKTDALNNVLIKVPPTPGYENSPAIVLQGHMDMVCEKCRDSGHDFSKDPIICIYEGDWLRGDGTSIGADNGIALAIGLVLAESGIKGEIEHPPLELLFTVDEETGLTGASGLEEDFFEGRILLNLDSEDEGIFILGCAGGQNSRIFLPLQWESFDYGKGSGFGLFRISAEGLEGGHSGVEIHRQRANGIQLLARMLSALKEKVGKENLRLVFFSGGSVHNAIPNYAEAFIVLSRNNEKQAEDFVSGLQKSFRGEYAVSDPEITLQLKEVENGIIFEASGGKITRKEVPSDRVFSVETEEKLYGVLLGMPHGVHRVSDTIPGLVETSNNLATVRTGEKEVRIVSSQRSSVMSRLAEVTEKVETVAKLAGARVEHECGYPAWEPDLQSGLLMKCRHAYSGTFGKEPEIKVVHAGLECGVIGSKCECIEMISFGPTIKDPHSPAERVYIPSIEKVWVFLENLMKSYRLEHHHHHH
